Experiments:
[1] = target: T1, Recombinant human PD-1 (prepared by Suzhou Junmeng Biopharm Co., Ltd. according to the sequence of NCBI … (human, UniProt Q15116 25-170, limits assumed)); assay: competitive ELISA against PD-L1 hFc on coated PD-1, relative to TAB001 (JS001) control
T1 construct: Soluble recombinant protein used in BLI and coated in ELISA; also called antigen PD-1

[2] = target: T2, Recombinant human VEGFA (Sino Biological, catalog number 11066-HNAB) (human); assay: competitive ELISA, VEGFA coated, competitor biotinylated VEGFR2 at 0.3 µg/mL (FIG. 8b)
T2 construct: also called VEGF antigen; Human/Cynomolgus VEGF/VEGFA/VEGF165 Protein
T2 chain: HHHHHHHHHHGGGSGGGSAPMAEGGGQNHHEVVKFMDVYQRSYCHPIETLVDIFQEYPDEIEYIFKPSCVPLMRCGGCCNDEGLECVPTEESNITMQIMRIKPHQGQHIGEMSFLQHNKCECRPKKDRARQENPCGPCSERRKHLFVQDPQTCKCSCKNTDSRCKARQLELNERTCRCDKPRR

[3] = target: T1, Recombinant human PD-1 (prepared by …); assay: BLI (Octet RED96e), antibody captured at 5 µg/mL, PD-1 at 210 and 70 nM
[4] = target: T2, Recombinant human VEGFA (Sino …); assay: BLI (Octet), antibody captured at 5 µg/mL, VEGFA at 25 and 12.5 nM
[5] = target: T2, Recombinant human VEGFA (Sino …); assay: indirect ELISA, human VEGFA coated at 0.5 µg/mL (FIG. 7b)
[6] = target: T2, Recombinant human VEGFA (Sino …); assay: indirect ELISA on coated human VEGFA, relative to Avastin control
[7] = target: T2, Recombinant human VEGFA (Sino …); assay: cell-based or functional assay
[8] = target: Human PD-1 on the cell surface (Jurkat PD-1 effector cells, Promega); CD4 T cells in the mixed lymphocyte … (human, UniProt Q15116 25-288); assay: cell-based or functional assay
[9] = target: T1, Recombinant human PD-1 (prepared by …); assay: competitive ELISA, PD-1 coated, competitor Biotin-PD-L1 hFc at 4.0 µg/mL (FIG. 9b)
[10] = target: T1, Recombinant human PD-1 (prepared by …); assay: indirect ELISA, human PD-1 coated at 0.3 µg/mL (FIG. 6b)
[11] = target: T2, Recombinant human VEGFA (Sino …); assay: BLI (Octet RED96e), told of the group
[12] = target: T2, Recombinant human VEGFA (Sino …); assay: competitive ELISA against VEGFR2 on coated VEGFA, relative to Avastin control
[13] = target: T1, Recombinant human PD-1 (prepared by …); assay: indirect ELISA on coated human PD-1, relative to TAB001 (JS001) control

B1: Bispecific antibody molecule 28 (bispecific antibody, human IgG4 S228P, kappa)
light: EVQLVESGGGLVQPGGSLRLSCAISGFSLAATDIDWVRQAPGKGLEWVARIFSPSDFTDYADSVKGRFTISADTSKNTVYLQMNSLRAEDTAVYYCGRPDTYAYNIFLDTPTYNALHYRGQGTLVTVSSGGGGSGGGGSGGGGSDVVMTQSPLSLPVTLGQPASISCRSSQSIVHSNGNTYLEWYLQKPGQSPQLLIYKVSNRFSGVPDRFSGSGSGTDFTLKISRVEAEDVGVYYCFQGSHVPLTFGQGTKLEIKRTVAAPSVFIFPPSDEQLKSGTASVVCLLNNFYPREAKVQWKVDNALQSGNSQESVTEQDSKDSTYSLSSTLTLSKADYEKHKVYACEVTHQGLSSPVTKSFNRGEC
heavy: not shown
notes: Anti-PD-1 IgG4 (JS001) with the anti-VEGF VHH at the N-terminus of each light chain; also called Antibody 28; antibody 28 (IgG4)
In the case of B1, the “Relative binding activity (%)” value [1] is reported as 45%, the IC50 [2] is reported as 1860 nM and the Kd [3] is reported as 1.67 nM. It also gave a koff [3] of 5.96e-05 s⁻¹, a kon [3] of 35800 M⁻¹ s⁻¹ and a Kd [4] of 0.0147 nM. It also gave a koff [4] of 1.88e-05 s⁻¹, a kon [4] of 1.28e+06 M⁻¹ s⁻¹ and an EC50 [5] of 6.17 nM. For the same binder, the “Relative binding activity (%)” value [6] was 57%, the “IC50, VEGFA-induced proliferation of HUVEC cells” value [7] was 150 nM and the “EC50, PD-1/PD-L1 luciferase reporter gene system (Jurkat PD-1 / CHO PD-L1)” value [8] was 26.1 nM. The IC50 [9] was 573 nM, the EC50 [10] was 59.5 nM and the Kd [11] was < 0.5 nM. For the same binder, the “Relative binding activity (%)” value [12] was 163% and the “Relative binding activity (%)” value [13] was 31%.

Source: patent publication EP4717714A1 (Shanghai Junshi Biosciences Co., Ltd., dated 2026)
